The target in one data set is TDP-43 RRM1-2 (human) (UniProt Q13148). As to the kind of experiment: ITC. Particulars: apparent, one set of sites model, ITC: 15 mM phosphate pH 6.8, 25 mM KCl, 1 mM TCEP, 25 C, NMR: same buffer, 298 K (SEA-HSQC 310 K), EMSA: 20 mM HEPES pH 7.6, 25 mM KCl, 2 mM MgCl2 ….
Data set [1] has as its target T1, TDP-43 RRM1-2 (human, UniProt Q13148 101-277). Nature of the data set: ITC; ITC: 15 mM phosphate pH 6.8, 25 mM KCl, 1 mM TCEP, 25 C; NMR: same buffer, 298 K (SEA-HSQC 310 K); EMSA: 20 mM HEPES pH 7.6, 25 mM KCl, 1 mM TCEP, 2 mM MgCl2, room temperature, 10 pmol DNA in 10 uL. Particulars: protein: recombinant; tags: His6 cleaved by TEV; residual N-terminal GSH (180 aa); single strand.

A further data set deals with TDP-43 RRM2 (human, UniProt Q13148 176-277). Nature of the data set: ITC; two protein copies; Kd values not in material; ITC: 15 mM phosphate pH 6.8, 25 mM KCl, 1 mM TCEP, 25 C; NMR: same buffer, 298 K (SEA-HSQC 310 K); EMSA: 20 mM HEPES pH 7.6, 25 mM KCl, 1 mM TCEP, 2 mM MgCl2, room temperature, 10 pmol DNA in 10 uL. Particulars: protein: recombinant; tags: His6 cleaved by TEV; chain copies: 2; single strand. A general note: ITC needs no label: the signal is the heat of the interaction.

In data set [2] the target is T2, TDP-43 RRM1 (human, UniProt Q13148 101-192). As to the kind of experiment: ITC; Kd1; ITC: 15 mM phosphate pH 6.8, 25 mM KCl, 1 mM TCEP, 25 C; NMR: same buffer, 298 K (SEA-HSQC 310 K); EMSA: 20 mM HEPES pH 7.6, 25 mM KCl, 1 mM TCEP, 2 mM MgCl2, room temperature, 10 pmol DNA in 10 uL. The following applies: protein: recombinant; tags: His6 cleaved by TEV; chain copies: 2; single strand.

Data set [3] concerns the target T1, TDP-43 RRM1-2. Nature of the data set: NMR and SAXS; same dimer interface as with (GU)12; ITC: 15 mM phosphate pH 6.8, 25 mM KCl, 1 mM TCEP, 25 C; NMR: same buffer, 298 K (SEA-HSQC 310 K); EMSA: 20 mM HEPES pH 7.6, 25 mM KCl, 1 mM TCEP, 2 mM MgCl2, room temperature, 10 pmol DNA in 10 uL. Particulars: protein: recombinant; tags: His6 cleaved by TEV; residual N-terminal GSH (180 aa); single strand. Background: A gel shift assay detects complexes by their altered migration in electrophoresis.

Data set [4] has as its target T1, TDP-43 RRM1-2. As to the kind of experiment: NMR; additional CSPs and peak broadening; ITC: 15 mM phosphate pH 6.8, 25 mM KCl, 1 mM TCEP, 25 C; NMR: same buffer, 298 K (SEA-HSQC 310 K); EMSA: 20 mM HEPES pH 7.6, 25 mM KCl, 1 mM TCEP, 2 mM MgCl2, room temperature, 10 pmol DNA in 10 uL. Particulars: protein: recombinant; tags: His6 cleaved by TEV; residual N-terminal GSH (180 aa); single strand.

Data set [5] has as its target T1, TDP-43 RRM1-2. Nature of the data set: ITC; Kd1, first monomer; ITC: 15 mM phosphate pH 6.8, 25 mM KCl, 1 mM TCEP, 25 C; NMR: same buffer, 298 K (SEA-HSQC 310 K); EMSA: 20 mM HEPES pH 7.6, 25 mM KCl, 1 mM TCEP, 2 mM MgCl2, room temperature, 10 pmol DNA in 10 uL. Particulars: protein: recombinant; tags: His6 cleaved by TEV; residual N-terminal GSH (180 aa); single strand.

Data set [6] addresses T1, TDP-43 RRM1-2. As to the kind of experiment: NMR and SAXS; two RRM1-2 bound; ITC: 15 mM phosphate pH 6.8, 25 mM KCl, 1 mM TCEP, 25 C; NMR: same buffer, 298 K (SEA-HSQC 310 K); EMSA: 20 mM HEPES pH 7.6, 25 mM KCl, 1 mM TCEP, 2 mM MgCl2, room temperature, 10 pmol DNA in 10 uL. Particulars: protein: recombinant; tags: His6 cleaved by TEV; residual N-terminal GSH (180 aa); single strand.

In data set [7] the target is T2, TDP-43 RRM1. As to the kind of experiment: ITC; ITC: 15 mM phosphate pH 6.8, 25 mM KCl, 1 mM TCEP, 25 C; NMR: same buffer, 298 K (SEA-HSQC 310 K); EMSA: 20 mM HEPES pH 7.6, 25 mM KCl, 1 mM TCEP, 2 mM MgCl2, room temperature, 10 pmol DNA in 10 uL. Particulars: protein: recombinant; tags: His6 cleaved by TEV; chain copies: 2; single strand.
The target in data set [8] is T1, TDP-43 RRM1-2. Nature of the data set: NMR; single RRM1-2 bound; ITC: 15 mM phosphate pH 6.8, 25 mM KCl, 1 mM TCEP, 25 C; NMR: same buffer, 298 K (SEA-HSQC 310 K); EMSA: 20 mM HEPES pH 7.6, 25 mM KCl, 1 mM TCEP, 2 mM MgCl2, room temperature, 10 pmol DNA in 10 uL. The following applies: protein: recombinant; tags: His6 cleaved by TEV; residual N-terminal GSH (180 aa); single strand.

T1 sequence (Q13148 101-277): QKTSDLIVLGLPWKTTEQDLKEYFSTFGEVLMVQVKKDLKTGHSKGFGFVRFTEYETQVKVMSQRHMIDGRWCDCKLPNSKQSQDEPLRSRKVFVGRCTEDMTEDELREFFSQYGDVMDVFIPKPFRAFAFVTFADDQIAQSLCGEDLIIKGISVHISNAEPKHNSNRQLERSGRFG
T2 sequence (Q13148 101-192): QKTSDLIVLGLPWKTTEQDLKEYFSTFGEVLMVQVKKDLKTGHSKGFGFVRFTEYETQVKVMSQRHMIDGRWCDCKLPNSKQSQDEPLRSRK
Sequence of TDP-43 RRM1-2 (human) (Q13148 101-277): as the sequence (Q13148 101-277) above
Sequence of TDP-43 RRM2 (Q13148 176-277): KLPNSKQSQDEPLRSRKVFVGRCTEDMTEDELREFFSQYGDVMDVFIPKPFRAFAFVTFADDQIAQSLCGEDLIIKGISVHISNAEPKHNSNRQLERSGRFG

For CLIP34nt (DNA), the Kd in the data set with TDP-43 RRM1-2 (human) was determined as 270 nM.

With GTGTGTGTGTGT (ssDNA) [(GT)6], the Kd with TDP-43 RRM1-2 [1] was determined as 68.4 nM; in the data set with TDP-43 RRM1 [2] it was 84.4 nM. Besides, in the data set with TDP-43 RRM2, the binding signal amounted to 0.05 Kd1/Kd2 ratio. With GUGUGAAUGAAUGUGUGUGUGUGU (ssRNA) [AUG12-(GU)6], the binding result in the data set with TDP-43 RRM1-2 [3] is listed as “binds”. For the molecule GUGUGUGUGUGUGUGUGUGUGUGUGUGUGUGUGUGUGUGUGUGUGUGU (ssRNA) [(GU)24], the binding result with TDP-43 RRM1-2 [4] is listed as “binds”. For GTGTGTGTGTGTGTGTGTGTGTGT (ssDNA) [(GT)12], the Kd with TDP-43 RRM1-2 [5] is 51 nM; with TDP-43 RRM1 [2] it was 2300 nM. For the molecule GUGUGUGUGUGUGUGUGUGUGUGU (ssRNA) [(GU)12], the binding result with TDP-43 RRM1-2 [6] is on record as “binds”.

In the case of GTGTGT (ssDNA) [(GT)3], the Kd was 2200 nM with TDP-43 RRM1-2 [1] and 929 nM with TDP-43 RRM1 [7]. Take GUGUGUGUGUGU (ssRNA) [(GU)6]: the binding result in the data set with TDP-43 RRM1-2 [8] is recorded as “binds”.
